Starred links: 1 amine or outer side, 2 acyl side, 3 side chain; linkers in the order of their positions; H or OH if unused. Non-standard residues stand in square brackets, D forms with d. No end group written: not given here. Cys(S-allyl) = S-allylcysteine, C=CCSC[C@H](N[*:1])C(=O)[*:2]; Cys(S-Me) = S-methylcysteine, CSC[C@H](N[*:1])C(=O)[*:2]; γGlu = O=C(O)[C@H](CCC(=O)[*:2])N[*:1]; Tau = Taurine, O=S(=O)(CCN[*:1])[*:2]; Tle = CC(C)(C)[C@H](N)C(=O)O; Orn = NCCC[C@H](N)C(=O)O; Abu = CC[C@H](N)C(=O)O

This is an account of results in patent US8106020B2, “Calcium receptor activator” (Ajinomoto Co., Inc., priority 2005, dated 2012).

The test system of the first assay is Parathyroid hormone (PTH). The assay is described as follows: Pharmacological evaluation in rats: serum PTH after intravenous injection. The following applies: 15 minutes after the administration; male Sprague-Dawley rats, 100 mg/ml in saline, 0.1 ml/100 g body weight, tail vein. Format: in vivo, rat. The source says: The pharmacological effects of the peptides were confirmed by animal study. Parathyroid hormone (PTH) is one of the major proteins which relate to calcium homeostasis. Increase in PTH is directly responsible for hyperparathyroidism and hypoparathyroidism. It is known that PTH is secreted from the parathyroid gland, and its secretion is inhibited when the calcium receptor is activated. Male, 10 weeks old, Sprague-Dawley strain rats were used. “Rat Intact PTH ELISA KIT” (Immutopics) was used for measuring PTH according to the manufacturer's recommended protocol. 100 mg/ml of γ-Glu-Val-Gly was dissolved in physiological saline, and 0.1 ml/100 g body weight for each was injected through the tail vein. Blood was collected from the vein under the right clavicle, and blood serum was obtained by centrifugation. Each group consists of 3 rats, and PTH variation is shown below as average value±standard error. The result for the peptide-administered group was: 148±72.5 pg/ml before the administration and 9.44±2.94 pg/ml 15 minutes after the administration; meanwhile, the result for the control group (physiological saline administered group) was: 89.4±49.5 pg/ml before the administration and 41.1±11.6 pg/ml 15 minutes after the administration. As a result, PTH levels decreased as a result of the administration of the peptides.
Turning to γ-Glu-Val-Gly ([γGlu]-Val-Gly), the “PTH in blood serum, average value±standard error” value was 9.44 ± 2.94 pg/mL.

Still in this assay, the particulars now being: before the administration; male Sprague-Dawley rats, 100 mg/ml in saline, 0.1 ml/100 g body weight, tail vein.
As for γ-Glu-Val-Gly ([γGlu]-Val-Gly), the “PTH in blood serum, average value±standard error” value was found to be 148 ± 72.5 pg/mL.

The next assay concerns the target T1, human calcium receptor (Homo sapiens, UniProt P41180).
T1 construct: expressed in transfected cells; host or cells: Xenopus laevis oocytes microinjected with cRNA; gene amplified by PCR from human kidney cDNA (Clontech) and cloned in pBR322
T1 sequence (P41180 20-1078): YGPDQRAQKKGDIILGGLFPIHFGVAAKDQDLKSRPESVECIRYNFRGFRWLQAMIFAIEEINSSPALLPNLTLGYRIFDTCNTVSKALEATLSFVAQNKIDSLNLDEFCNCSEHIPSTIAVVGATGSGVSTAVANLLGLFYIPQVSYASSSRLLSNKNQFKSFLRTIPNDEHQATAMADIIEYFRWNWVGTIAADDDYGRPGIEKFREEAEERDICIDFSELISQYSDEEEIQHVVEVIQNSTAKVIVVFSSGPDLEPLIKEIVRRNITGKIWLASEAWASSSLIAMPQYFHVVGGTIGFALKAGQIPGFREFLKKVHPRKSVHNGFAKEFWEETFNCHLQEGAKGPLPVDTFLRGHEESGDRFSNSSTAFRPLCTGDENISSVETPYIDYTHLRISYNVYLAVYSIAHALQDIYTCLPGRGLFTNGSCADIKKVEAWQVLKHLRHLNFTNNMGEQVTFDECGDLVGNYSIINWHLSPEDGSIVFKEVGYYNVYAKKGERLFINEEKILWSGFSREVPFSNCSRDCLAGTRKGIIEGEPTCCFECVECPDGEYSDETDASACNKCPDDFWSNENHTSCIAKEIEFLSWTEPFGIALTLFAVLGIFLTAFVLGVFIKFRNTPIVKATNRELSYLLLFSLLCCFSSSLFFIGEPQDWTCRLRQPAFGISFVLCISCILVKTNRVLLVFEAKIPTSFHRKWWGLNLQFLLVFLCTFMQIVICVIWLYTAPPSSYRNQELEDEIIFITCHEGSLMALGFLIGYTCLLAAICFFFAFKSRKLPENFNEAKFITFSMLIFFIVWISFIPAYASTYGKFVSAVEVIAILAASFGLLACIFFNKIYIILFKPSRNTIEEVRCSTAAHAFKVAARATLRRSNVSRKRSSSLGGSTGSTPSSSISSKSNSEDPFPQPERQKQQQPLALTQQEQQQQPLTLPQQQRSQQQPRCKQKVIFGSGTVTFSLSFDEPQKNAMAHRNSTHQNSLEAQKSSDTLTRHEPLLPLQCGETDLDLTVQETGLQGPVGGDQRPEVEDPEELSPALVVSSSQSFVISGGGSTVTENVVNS
The experiment in a line: Calcium receptor activation activity: Ca ion concentration-dependent Cl ionic current in Xenopus laevis oocyte expression system. The following applies: Ca ion concentration-dependent Cl response current; peptides added at 1000 to 0.1 μM; oocytes voltage-clamped at −70 mV. Format: cell-based. On the procedure:
To evaluate calcium receptor activation activity, a Ca ion concentration-dependent Cl ionic current measuring method using a Xenopus laevis oocyte expression system was used. If each activator is added to Xenopus laevis oocytes expressing the calcium receptor, intracellular Ca ions increase. Then, the Ca ion concentration-dependent Cl channel opens, and the intracellular current value changes as an ionic current. By measuring the change in this intracellular current value, the presence or absence of calcium receptor activation activity can be determined.
Specifically, the abdomen of Xenopus laevis was opened, and an egg batch was taken out and treated with a 1% collagenase solution at 20° C. for 2 hours to obtain individual oocytes. Into the oocytes, 50 nl of 1 μg/μl receptor cRNA or 50 nl of sterilized water per oocyte was introduced by using a micro glass capillary, and the oocytes were cultured at 18° C. for 2 or 3 days. For the culture, a solution obtained by adding 2 mM pyruvic acid, 10 U/ml of penicillin, and 10 μg/ml of streptomycin to the solution in Example 2 was used. After the culture, a test solution was added to the oocytes containing either the cRNA or sterilized water. Electrophysiological measurement was performed by using an amplifier, Geneclamp500 (Axon), and recording software, AxoScope 9.0 (Axon). The oocytes were voltage-clamped at −70 mV by the double electrode voltage clamp method, and the intracellular current was measured via the Ca ion concentration-dependent Cl ion channel. The maximum value of the intracellular current was considered as the response current value.
Calcium receptor activation activity of L-amino acids was evaluated by using the method described in Example 6. That is, oocytes containing either cRNA of the calcium receptor or sterilized water were prepared, and voltage-clamped at −70 mV by the double electrode voltage clamp method. To the voltage-clamped oocytes, alanine (10 mM), arginine (10 mM), asparagine (10 mM), aspartic acid (10 mM), cysteine (10 mM), glutamine (10 mM), glutamic acid (10 mM), glycine (10 mM), histidine (10 mM), isoleucine (10 mM), leucine (10 mM), lysine (10 mM), methionine (10 mM), phenylalanine (10 mM), proline (10 mM), serine (10 mM), threonine (10 mM), tryptophan (10 mM), tyrosine (10 mM), valine (10 mM), ornithine (10 mM), taurine (10 mM), or hydroxyproline (10 mM) was added, and Ca ion concentration-dependent Cl response current was measured. […] As for the aforementioned amino acids, the activation activity was reported in Proc. Natl. Acad. Sci. USA, 2000 Apr. 25, 97(9):4814-9.
Calcium receptor activation activity of D-cysteine was evaluated by using the method described in Example 6. That is, oocytes containing either cRNA of the calcium receptor or sterilized water were prepared, and voltage-clamped at −70 mV by the double electrode voltage clamp method. To the voltage-clamped oocytes, D-cysteine (10 mM), L-cysteine (10 mM), D-tryptophan (10 mM), or L-tryptophan (10 mM) was added, and Ca ion concentration-dependent Cl response current was measured.
Calcium receptor activation activity of peptides was evaluated by using the method described in Example 6. That is, oocytes containing either cRNA of the calcium receptor or sterilized water were prepared, and voltage-clamped at −70 mV by the double electrode voltage clamp method.
Calcium receptor activation activity of peptides was evaluated in the same manner as that of Example 10. Each of the peptides shown in Table 2 was added to voltage-clamped oocytes at 1000 μM, 300 μM, 100 μM, 30 μM, 10 μM, 3 μM, 1 μM, 0.3 μM, and 0.1 μM, and Ca ion concentration-dependent Cl response current was measured.
γ-Glu-Abu-Gly ([γGlu]-[Abu]-Gly): the “Activity (lowest concentration for which current was detected)” value was 3 µM.

Turning to “γ-Glu-Cys(S-Me)-Gly ([γGlu]-[Cys(S-Me)]-Gly)”, the “Activity (lowest concentration for which current was detected)” value was 3 µM.

Regarding “γ-Glu-Cys(S-allyl)-Gly ([γGlu]-[Cys(S-allyl)]-Gly)”, the “Activity (lowest concentration for which current was detected)” value came to 100 µM.

In the case of γ-Glu-Gly-Gly ([γGlu]-Gly-Gly), the “Activity (lowest concentration for which current was detected)” value is 30 µM.

With γ-Glu-Ser-Gly ([γGlu]-Ser-Gly), the “Activity (lowest concentration for which current was detected)” value worked out at 30 µM.

In the case of γ-Glu-Tau ([γGlu]-[Tau]), the “Activity (lowest concentration for which current was detected)” value stood at 300 µM.

With γ-Glu-Val-Arg ([γGlu]-Val-Arg), the “Activity (lowest concentration for which current was detected)” value came to 1000 µM.

Take γ-Glu-Val-Asn ([γGlu]-Val-Asn): the “Activity (lowest concentration for which current was detected)” value was determined as 30 µM.

As to γ-Glu-Val-Asp, the “Activity (lowest concentration for which current was detected)” value amounted to 1000 µM.

On to γ-Glu-Val-Cys ([γGlu]-Val-Cys), for which the “Activity (lowest concentration for which current was detected)” value was 10 µM.

With γ-Glu-Val-Gln ([γGlu]-Val-Gln), the “Activity (lowest concentration for which current was detected)” value was 10 µM.

Turning to γ-Glu-Val-Glu ([γGlu]-Val-Glu), the “Activity (lowest concentration for which current was detected)” value was found to be 1000 µM.

For γ-Glu-Val-Gly ([γGlu]-Val-Gly), the “Activity (lowest concentration for which current was detected)” value amounted to 0.1 µM.

Consider γ-Glu-Val-His ([γGlu]-Val-His), for which the “Activity (lowest concentration for which current was detected)” value was determined as 100 µM.

Turning to γ-Glu-Val-Lys ([γGlu]-Val-Lys), the “Activity (lowest concentration for which current was detected)” value came to 1000 µM.

For the compound γ-Glu-Val-Met ([γGlu]-Val-Met), the “Activity (lowest concentration for which current was detected)” value stood at 1000 µM.

In the case of γ-Glu-Val-Orn ([γGlu]-Val-[Orn]), the “Activity (lowest concentration for which current was detected)” value was determined as 100 µM.

On to γ-Glu-Val-Phe ([γGlu]-Val-Phe), for which the “Activity (lowest concentration for which current was detected)” value came out at 30 µM.

In the case of γ-Glu-Val-Pro ([γGlu]-Val-Pro), the “Activity (lowest concentration for which current was detected)” value was 30 µM.

With γ-Glu-Val-Ser ([γGlu]-Val-Ser), the “Activity (lowest concentration for which current was detected)” value was 30 µM.

In the case of γ-Glu-Val-Thr ([γGlu]-Val-Thr), the “Activity (lowest concentration for which current was detected)” value stood at 1000 µM.

Consider γ-Glu-Val-Val ([γGlu]-Val-Val), for which the “Activity (lowest concentration for which current was detected)” value is 1000 µM.

For the compound γ-Glu-t-Leu ([γGlu]-[Tle]), the “Activity (lowest concentration for which current was detected)” value turned out to be 100 µM.

Take γ-Glu-γ-Glu-Val ([γGlu]-[γGlu]-Val): the “Activity (lowest concentration for which current was detected)” value came to 1000 µM.

Staying with this assay, now noted: D-amino acid 10 mM; FIG. 3.
As to `N[C@H](CS)C(=O)O` [D-cysteine], the “calcium receptor activation activity (Cl response current)” value (“calcium receptor activation activity” below) was “definitive calcium receptor activation activity”.

Still in this assay, the particulars now being: L-amino acid 10 mM; FIG. 2.
For the compound `N[C@@H](CS)C(=O)O` [cysteine, reference compound], the “calcium receptor activation activity” value is “definite calcium receptor activation activity”.

As to `N[C@@H](Cc1c[nH]cn1)C(=O)O` [histidine, reference compound], the “calcium receptor activation activity” value is “definite calcium receptor activation activity”.

For `N[C@@H](Cc1ccccc1)C(=O)O` [phenylalanine, reference compound], the “calcium receptor activation activity” value is listed as “definite calcium receptor activation activity”.

Consider `N[C@@H](Cc1c[nH]c2ccccc12)C(=O)O` [tryptophan, reference compound], for which the “calcium receptor activation activity” value is reported as “definite calcium receptor activation activity”.

For `N[C@@H](Cc1ccc(O)cc1)C(=O)O` [tyrosine, reference compound], the “calcium receptor activation activity” value is on record as “definite calcium receptor activation activity”.

Still in this assay, the particulars now being: peptide 50 μM; FIG. 4.
For the compound `N[C@@H](CCC(=O)N[C@@H](CSN=O)C(=O)NCC(=O)O)C(=O)O` [γ-Glu-Cys(SNO)-Gly], the “calcium receptor activation activity” value was “definitive calcium receptor activation activity”.

With `N[C@@H](CCC(=O)N[C@@H](CS)C(=O)NCC(=O)O)C(=O)O` [γ-Glu-Cys-Gly], the “calcium receptor activation activity” value is “definitive calcium receptor activation activity”.

The same assay, now with this note: peptide 500 μM; FIG. 4.
In the case of γ-Glu-Orn ([γGlu]-[Orn]), the “calcium receptor activation activity” value is “definitive calcium receptor activation activity”.
